Among the data in US20240279281A1, “Peptide Inhibitors of Interleukin-23 Receptor” (Janssen Pharmaceutica NV, priority 2023, published 2024) are IL23R Reporter Assay IC50 and PBMC pSTAT3 IC50 values, retold here.

T1: interleukin-23 receptor (IL-23R), Q5VWK5
T1 chain: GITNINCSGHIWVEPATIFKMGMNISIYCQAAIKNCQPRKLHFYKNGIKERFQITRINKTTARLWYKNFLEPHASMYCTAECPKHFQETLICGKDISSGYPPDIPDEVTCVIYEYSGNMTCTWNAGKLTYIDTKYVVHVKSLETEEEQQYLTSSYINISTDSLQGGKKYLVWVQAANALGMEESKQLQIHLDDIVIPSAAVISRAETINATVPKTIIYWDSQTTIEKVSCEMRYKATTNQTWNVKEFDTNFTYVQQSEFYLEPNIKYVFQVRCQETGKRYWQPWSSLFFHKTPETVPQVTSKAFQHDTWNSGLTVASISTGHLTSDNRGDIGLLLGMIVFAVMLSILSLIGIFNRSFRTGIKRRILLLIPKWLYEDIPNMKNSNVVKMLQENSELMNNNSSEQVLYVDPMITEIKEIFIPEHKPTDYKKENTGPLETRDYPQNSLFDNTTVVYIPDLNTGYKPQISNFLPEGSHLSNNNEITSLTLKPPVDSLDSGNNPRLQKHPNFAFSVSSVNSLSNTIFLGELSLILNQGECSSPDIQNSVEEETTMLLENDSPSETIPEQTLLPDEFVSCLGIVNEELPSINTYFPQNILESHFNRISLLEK

B1: SEQ ID NO: 382 (peptide)
peptide: [Pen]ET[Trp(7-Me)][N,N,N‑trimethylhomolysine][Pen][2‑amino‑3‑(4-(2-(methylamino)ethoxy)phenyl)propanoic acid][2‑amino‑3‑(6-hydroxynaphthalen-2-yl)propanoic acid][Thp]EN[3Pal][Sar]
modifications: not fully specified (bridges); ends and bridges not checked
B2: SEQ ID NO: 417 (peptide)
peptide: [Ahp][Pen]NT[Trp(7-Me)]K(Ac)[Pen][AEF][2Nal(6-OH)][Thp]EN[3Pal][Sar]
modifications: not fully specified (bridges); ends and bridges not checked
B3: SEQ ID NO: 397 (peptide)
peptide: [Pen]ET[Trp(7-Me)]K(Ac)[Pen][2‑amino‑3‑(4-(2-aminoethoxy)phenyl)propanoic acid][2‑amino‑3‑(6-hydroxynaphthalen-2-yl)propanoic acid][Thp]EN[3Pal][Sar]
modifications: not fully specified (bridges); ends and bridges not checked
B4: SEQ ID NO: 48 (peptide)
peptide: R[Pen]NT[Trp(7-Me)]K(Ac)[Pen][5‑(4-(2-amino-2-carboxyethyl)phenoxy)‑N,N,N‑trimethylpentan‑1‑aminium][2‑amino‑3‑(6-hydroxynaphthalen-2-yl)propanoic acid][Thp]EN[X7][Sar]
modifications: disulfide 2-7 (inferred); ends not checked
B5: SEQ ID NO: 380 (peptide)
peptide: [Pen]NT[Trp(7-Me)]K(Ac)[Pen][2‑amino‑3‑(4-(2-aminoethoxy)phenyl)propanoic acid][2‑amino‑3‑(6-hydroxynaphthalen-2-yl)propanoic acid][Thp]EN[3Pal][Sar]
modifications: not fully specified (bridges); ends and bridges not checked
B6: SEQ ID NO: 348 (peptide)
peptide: K[Pen]NT[Trp(7-Me)]K[Pen][AEF][2Nal(6-OH)][Thp][Aad]N[3Pal][Sar]
modifications: not fully specified (residue 6, bridges); ends and bridges not checked
B7: SEQ ID NO: 49 (peptide)
peptide: R[Pen]NT[Trp(7-Me)]K(Ac)[Pen][2‑amino‑3‑(4-(2-aminoethoxy)phenyl)propanoic acid][2‑amino‑3‑(6-hydroxynaphthalen-2-yl)propanoic acid][Thp]K(Ac)N[X7][Sar]
modifications: disulfide 2-7 (inferred); ends not checked
B8: SEQ ID NO: 424 (peptide)
peptide: R[Pen]NT[Trp(7-Me)]K(Ac)[Pen][AEF][2Nal(6-OH)][Thp]KN[3Pal][Sar]
modifications: not fully specified (residue 11, bridges); ends and bridges not checked; also: K11: lipidated lysine
B9: SEQ ID NO: 422 (peptide)
peptide: R[Pen]ET[Trp(7-Me)]K(Ac)[Pen][AEF][2Nal(6-OH)][Thp]K(Ac)N[3Pal][Sar]
modifications: not fully specified (bridges); ends and bridges not checked
B10: SEQ ID NO: 379 (peptide)
peptide: [Pen]NT[Trp(7-Me)]K(Ac)[Pen][2‑amino‑3‑(4-(2-aminoethoxy)phenyl)propanoic acid][2‑amino‑3‑(6-hydroxynaphthalen-2-yl)propanoic acid][Thp]EN[3Pal][Sar]
modifications: not fully specified (bridges); ends and bridges not checked
B11: SEQ ID NO: 50 (peptide)
peptide: [dK](Me3)[Pen]NT[Trp(7-Me)]K(Ac)[Pen][2‑amino‑3‑(4-(2-aminoethoxy)phenyl)propanoic acid][2‑amino‑3‑(6-hydroxynaphthalen-2-yl)propanoic acid][Thp]EN[X7][Sar]
modifications: disulfide 2-7 (inferred); ends not checked
B12: SEQ ID NO: 429 (peptide)
peptide: R[Pen]NT[Trp(7-Me)]K(Ac)[Pen][2‑amino‑3‑(4-(2-aminoethoxy)phenyl)propanoic acid][2‑amino‑3‑(6-hydroxynaphthalen-2-yl)propanoic acid][Thp]ENA[Sar]
modifications: not fully specified (bridges); ends and bridges not checked
B13: SEQ ID NO: 372 (peptide)
peptide: [Pen]ET[Trp(7-Me)]K(Ac)[Pen][2‑amino‑3‑(4-(2-aminoethoxy)phenyl)propanoic acid][2‑amino‑3‑(6-hydroxynaphthalen-2-yl)propanoic acid][Thp]EN[3Pal][Sar]
modifications: not fully specified (bridges); ends and bridges not checked
B14: SEQ ID NO: 388 (peptide)
peptide: [dLys(Me3)][Pen]NT[Trp(7-Me)]K(Ac)[Pen][2‑amino‑3‑(4-(2-aminoethoxy)phenyl)propanoic acid][2‑amino‑3‑(6-hydroxynaphthalen-2-yl)propanoic acid][Thp]EN[3Pal][Sar]
modifications: not fully specified (bridges); ends and bridges not checked
B15: SEQ ID NO: 347 (peptide)
peptide: [Pen]NT[Trp(7-Me)]K(Ac)[Pen][AEF][2Nal(6-OH)][Thp]EN[3Pal][Sar]
modifications: not fully specified (bridges); ends and bridges not checked
B16: SEQ ID NO: 378 (peptide)
peptide: [Pen]NT[Trp(7-Me)]K(Ac)[Pen][2‑amino‑3‑(4-(2-aminoethoxy)phenyl)propanoic acid][2‑amino‑3‑(6-hydroxynaphthalen-2-yl)propanoic acid][Thp]EN[3Pal][Sar]
modifications: not fully specified (bridges); ends and bridges not checked
B17: SEQ ID NO: 5 (peptide)
peptide: CNT[Trp(7-Me)]K(Ac)[αMeC][2‑amino‑3‑(4-(2-aminoethoxy)phenyl)propanoic acid][2‑amino‑3‑(6-hydroxynaphthalen-2-yl)propanoic acid][Thp]K(Ac)N[3Pal][Sar]
modifications: ends and bridges not checked
B18: SEQ ID NO: 340 (peptide)
peptide: [(R)‑3‑carboxy‑2‑(4-(((R)-5-carboxy-5-hydrazineylpentyl)amino)-4-oxobutanamido)‑N,N,N‑trimethylpropan‑1‑aminium][Pen]NT[Trp(7-Me)]K(Ac)[Pen][AEF][2Nal(6-OH)][Thp]EN[3Pal][Sar]
modifications: not fully specified (bridges); ends and bridges not checked
B19: SEQ ID NO: 51 (peptide)
peptide: R[Pen]NT[Trp(7-Me)]K(Ac)[Pen][AEF][2Nal(6-OH)][Thp]EN[3Pal(5-Me)][Sar]
modifications: disulfide 2-7 (inferred); ends not checked
B20: SEQ ID NO: 413 (peptide)
peptide: [dDab](Ac)[Abu]NTWQC[AEF][2Nal(6-OH)][Thp]CN[3Pal][Sar]
modifications: not fully specified (bridges); ends and bridges not checked
B21: SEQ ID NO: 52 (peptide)
peptide: R[Pen]NT[Trp(7-Me)]K(Ac)[Pen][AEF][2Nal(6-OH)][Thp]EN[3Pal(5-Me)][Sar]
modifications: disulfide 2-7 (inferred); ends not checked
B22: SEQ ID NO: 334 (peptide)
peptide: [Pen]NT[2‑amino‑3‑(benzo(b)thiophen-3-yl)propanoic acid]K(Ac)[Pen][AEF][2Nal(6-OH)][Thp]EN[3Pal][Sar]
modifications: not fully specified (bridges); ends and bridges not checked

Starred links: 1 amine or outer side, 2 acyl side, 3 side chain; linkers in the order of their positions; H or OH if unused. Positions of bridges follow the written chain, without caps; N, C: chain ends. Non-standard residues stand in square brackets, D forms with d. No end group written: not given here. X7 = 2‑amino‑3‑(5-methylpyridin-3-yl)propanoic acid, Cc1cncc(CC(N[*:1])C(=O)[*:2])c1; 2Nal(6-OH) = N[C@@H](Cc1ccc2cc(O)ccc2c1)C(=O)O; Trp(7-Me) = Cc1cccc2c(C[C@H](N)C(=O)O)c[nH]c12; dLys(Me3) = C[N+](C)(C)CCCC[C@@H](N)C(=O)O; 3Pal(5-Me) = Cc1cncc(C[C@H](N)C(=O)O)c1; AEF = NCCOc1ccc(C[C@H](N)C(=O)O)cc1; 3Pal = N[C@@H](Cc1cccnc1)C(=O)O; Aad = N[C@@H](CCCC(=O)O)C(=O)O; Pen = CC(C)(S)[C@H](N)C(=O)O; dDab = NCC[C@@H](N)C(=O)O; αMeC = C[C@](N)(CS)C(=O)O; Thp = NC1(C(=O)O)CCOCC1; Abu = CC[C@H](N)C(=O)O; Ahp = NCCCCCCC(=O)O; Sar = CNCC(=O)O A value given as a limit tells only on which side of the number the result lay.

This assay deals with T1, interleukin-23 receptor (IL-23R), Q5VWK5. In words: cell-based or functional assay.
Molecule B1 gave an IL23R Reporter Assay IC50 of less than 10 nM and a PBMC pSTAT3 IC50 of less than 0.01 nM.

B2 displayed an IL23R Reporter Assay IC50 of less than 10 nM and a PBMC pSTAT3 IC50 of less than 0.01 nM. B3 came in with an IL23R Reporter Assay IC50 of less than 10 nM and a PBMC pSTAT3 IC50 of less than 0.01 nM. Take B4: the IL23R Reporter Assay IC50 is less than 10 nM. Regarding B5, the IL23R Reporter Assay IC50 is less than 10 nM. B6 showed an IL23R Reporter Assay IC50 of less than 10 nM. On the same count and under the same terms, under B7 stands less than 10 nM.

Molecule B8 had an IL23R Reporter Assay IC50 of more than 100 nM and a PBMC pSTAT3 IC50 of less than 1 nM. In turn, B9 showed an IL23R Reporter Assay IC50 of less than 10 nM and a PBMC pSTAT3 IC50 of less than 0.01 nM. Regarding B10, the IL23R Reporter Assay IC50 is less than 10 nM.

As to B11, the IL23R Reporter Assay IC50 was less than 10 nM.

In the case of B12, the IL23R Reporter Assay IC50 was more than 100 nM and the PBMC pSTAT3 IC50 was more than 1 nM. Take B13: the IL23R Reporter Assay IC50 is less than 10 nM and the PBMC pSTAT3 IC50 was less than 0.01 nM. As to B14, the IL23R Reporter Assay IC50 is less than 10 nM and the PBMC pSTAT3 IC50 is less than 0.01 nM. The matching figures for B15: less than 10 nM and less than 0.1 nM. In the case of B16, the IL23R Reporter Assay IC50 was less than 10 nM and the PBMC pSTAT3 IC50 is less than 0.01 nM. B17 returned an IL23R Reporter Assay IC50 of less than 10 nM and a PBMC pSTAT3 IC50 of less than 0.01 nM.

For the molecule B18, the IL23R Reporter Assay IC50 was less than 10 nM and the PBMC pSTAT3 IC50 was less than 0.01 nM. Molecule B19 had an IL23R Reporter Assay IC50 of less than 10 nM. B20: the IL23R Reporter Assay IC50 is less than 10 nM and the PBMC pSTAT3 IC50 was less than 0.1 nM. For the molecule B21, the IL23R Reporter Assay IC50 is less than 10 nM. As for B22, the IL23R Reporter Assay IC50 is less than 10 nM.
